Measurements published in patent US20230139700A1 (BIO THERA SOLUTIONS, published 2023).

T1: human OX40 on cells (human, UniProt P43489 29-277)
T1 sequence (looked up): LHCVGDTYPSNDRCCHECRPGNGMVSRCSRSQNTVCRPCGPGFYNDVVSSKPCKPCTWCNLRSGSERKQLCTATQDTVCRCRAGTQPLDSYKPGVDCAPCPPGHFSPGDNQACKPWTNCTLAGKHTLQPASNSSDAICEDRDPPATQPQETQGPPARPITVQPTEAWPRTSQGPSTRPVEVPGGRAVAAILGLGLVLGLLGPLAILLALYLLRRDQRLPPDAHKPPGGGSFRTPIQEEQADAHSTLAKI

T2: hOX40-his (human, UniProt P43489 29-216)
T2 construct: range 1-216; Made in HEK293; The stated range starts at residue 1 (holds the signal peptide of the entry); no cleavage site stated; not shown: his tag
T2 sequence (looked up): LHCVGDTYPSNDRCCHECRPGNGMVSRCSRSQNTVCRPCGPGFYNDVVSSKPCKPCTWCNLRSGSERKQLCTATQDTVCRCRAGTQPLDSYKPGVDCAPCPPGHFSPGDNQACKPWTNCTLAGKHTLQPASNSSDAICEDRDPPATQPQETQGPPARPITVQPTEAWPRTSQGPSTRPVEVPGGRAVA

T3: hOX40-FC (human, UniProt P43489 29-216)
T3 construct: range 1-216; Made in HEK293; The stated range 1-216 starts at residue 1, so it holds the signal peptide of the entry; also called human OX40 extracellular region fused to human IgG1-Fc; not shown: human IgG1-Fc, UniProt P01857, residues 104 to 330
T3 sequence (looked up): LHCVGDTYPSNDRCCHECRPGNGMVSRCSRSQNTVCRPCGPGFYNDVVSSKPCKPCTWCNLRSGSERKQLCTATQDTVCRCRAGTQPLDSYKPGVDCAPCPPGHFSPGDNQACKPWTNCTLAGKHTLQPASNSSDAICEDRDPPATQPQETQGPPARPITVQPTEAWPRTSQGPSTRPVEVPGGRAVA

B1: Antibody M (antibody, human IgG1, kappa, V domains shown)
VH: QVQLVESGGGVVQPGESLRLSCAASGFTFSSYGMHWVRQAPGKGLEWVAVIWEDGSNQYYADSVKGRFTISRDNSKNTLYLQMNSLRAEDTAVYYCAKDNQDTSPDVGIDYWGQGTLVTVSS
VL: DIQMTQSPSSLSASVGDRVTITCRASQNISPFLNWYQQKPGKAPKLLIYAAVGLQSGVPSRFSGSGSGTDFTLTISSLQPEDFATYYCQQYTDYPLTFGGGTKVEIKR
notes: also called antibody No. 12; anti-OX40 antibody (antibody M)
B2: T + TD (antibody, human IgG1, kappa, V domains shown)
VH: QVQLEESGGGVVQPGESLRLSCAASGFTFSSYGMHWVRQAPGKGLEWVAVISYDGSNQYYADSVKGRFTISRDNSKNTLYLQMNSLRAEDTAVYYCAKDNQDTSPDVGIDYWGQGTLVTVSS
VL: DIQMTQSPSSLSASVGDTVTITCRASQNISPFLNWYQQKPGKAPKLLIYAASSLQSGVPSRFSGSGSGTDFTLTISSLQPEDFATYYCQQYTDYPLTFGGGTKVEIKR
B3: T + VG (antibody, human IgG1, kappa, V domains shown)
VH: QVQLEESGGGVVQPGESLRLSCAASGFTFSSYGMHWVRQAPGKGLEWVAVISYDGSNQYYADSVKGRFTISRDNSKNTLYLQMNSLRAEDTAVYYCAKDNQDTSPDVGIDYWGQGTLVTVSS
VL: DIQMTQSPSSLSASVGDTVTITCRASQNISPFLNWYQQKPGKAPKLLIYAAVGLQSGVPSRFSGSGSGTDFTLTISSLQPEDFATYYCQQYNSYPLTFGGGTKVEIKR
B4: T + VGL + TD (antibody, human IgG1, kappa, V domains shown)
VH: QVQLEESGGGVVQPGESLRLSCAASGFTFSSYGMHWVRQAPGKGLEWVAVISYDGSNQYYADSVKGRFTISRDNSKNTLYLQMNSLRAEDTAVYYCAKDNQDTSPDVGIDYWGQGTLVTVSS
VL: DIQMTQSPSSLSASVGDTVTITCRASQNISPFLNWYQQKPGKAPKLLIYAAVGLQSGVPSRFSGSGSGTDFTLTISSLQPEDFATYYCQQYTDYPLTFGGGTKVEIKR
B5: VH + VGTD (antibody, human IgG1, kappa, V domains shown)
VH: QVQLEESGGGVVQPGESLRLSCAASGFTFSSYGMHWVRQAPGKGLEWVAVISYDGSNQYYADSVKGRFTISRDNSKNTLYLQMNSLRAEDTAVYYCAKDNQDSSPDVGIDYWGQGTLVTVSS
VL: DIQMTQSPSSLSASVGDTVTITCRASQNISPFLNWYQQKPGKAPKLLIYAAVGLQSGVPSRFSGSGSGTDFTLTISSLQPEDFATYYCQQYTDYPLTFGGGTKVEIKR
B6: WEST + TD (antibody, human IgG1, kappa, V domains shown)
VH: QVQLEESGGGVVQPGESLRLSCAASGFTFSSYGMHWVRQAPGKGLEWVAVIWEDGSNQYYADSVKGRFTISRDNSKNTLYLQMNSLRAEDTAVYYCAKDNQDTSPDVGIDYWGQGTLVTVSS
VL: DIQMTQSPSSLSASVGDTVTITCRASQNISPFLNWYQQKPGKAPKLLIYAASSLQSGVPSRFSGSGSGTDFTLTISSLQPEDFATYYCQQYTDYPLTFGGGTKVEIKR
B7: WEST + VG (antibody, human IgG1, kappa, V domains shown)
VH: QVQLEESGGGVVQPGESLRLSCAASGFTFSSYGMHWVRQAPGKGLEWVAVIWEDGSNQYYADSVKGRFTISRDNSKNTLYLQMNSLRAEDTAVYYCAKDNQDTSPDVGIDYWGQGTLVTVSS
VL: DIQMTQSPSSLSASVGDTVTITCRASQNISPFLNWYQQKPGKAPKLLIYAAVGLQSGVPSRFSGSGSGTDFTLTISSLQPEDFATYYCQQYNSYPLTFGGGTKVEIKR
B8: WEST + VL (antibody, human IgG1, kappa, V domains shown)
VH: QVQLEESGGGVVQPGESLRLSCAASGFTFSSYGMHWVRQAPGKGLEWVAVIWEDGSNQYYADSVKGRFTISRDNSKNTLYLQMNSLRAEDTAVYYCAKDNQDTSPDVGIDYWGQGTLVTVSS
VL: DIQMTQSPSSLSASVGDTVTITCRASQNISPFLNWYQQKPGKAPKLLIYAASSLQSGVPSRFSGSGSGTDFTLTISSLQPEDFATYYCQQYNSYPLTFGGGTKVEIKR
B9: Antibody-F23-7k (antibody, human IgG1, kappa, V domains shown)
VH: QVQLEESGGGVVQPGESLRLSCAASGFTFSSYGMHWVRQAPGKGLEWVAVISYDGSNQYYADSVKGRFTISRDNSKNTLYLQMNSLRAEDTAVYYCAKDNQDSSPDVGIDYWGQGTLVTVSS
VL: DIQMTQSPSSLSASVGDRVTITCRASQSISSYLNWYQQKPGKAPKLLMYAASSLQSGVPSRFSGSGSGTDFTLTISSLQPEDFATYYCLQIDSYPLTFGGGTKVEIKR
notes: also called antibody No. 5
B10: Antibody-FE-16H (antibody, human IgG1, kappa, V domains shown)
VH: QVQLVESGGGLVQPGGSLRLSCAASGFTFSSYAMSWVRQAPGKGLEWVSAISGSGGSTYYADSVKGRFTISRDNSKNSLYLQMNSLRAEDTAVYYCARGDSSSWFIFQDWGQGTLVTVSS
VL: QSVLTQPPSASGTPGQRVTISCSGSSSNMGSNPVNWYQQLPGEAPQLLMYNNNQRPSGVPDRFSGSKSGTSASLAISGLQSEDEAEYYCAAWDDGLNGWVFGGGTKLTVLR
notes: also called antibody No. 10
B11: Antibody-A2 (antibody, human IgG1, kappa, V domains shown)
VH: QVQLVESGGGLIQPGGSLRLSCAASGFTVSSNYMSWVRQAPGEGLEWIATIYYGGSTYYNPSLKSRVTISADMSKNQFSLKLSSMTAADTAVYYCARVVVPGYFDLWGRGTLVTVSS
VL: SSELTQDPAVSVALGQTVSITCQGDSLRSYYASWYQQKPGQAPVPVIYGKNNRPSGIPDRFSGSSSGNTASLTITGAQAEDEADYYCHSRDSSGKYVFGVGTKLTVLR
notes: also called antibody No. 11
B12: Antibody-X35-6L (antibody, human IgG1, kappa, V domains shown)
VH: EVQLVESGGGLVQPGRSLRLSCAASGFTFDDYAMHWVRQAPGRGLEWVSGIGGSGGSTYYADSVKGRFTISRDNSKNTLYLQMNGLGAEDTAVYYCAKDRGYGDYYWYFDLWGRGTLVTVSS
VL: SSELTQPASVSGSPGQSITISCTGTSSDVGGYNYVSWYQQHPGKAPKLMIYDVSNRPSGVSNRFSGSKSGNTASLTISGLQAEDEADYYCSSYTTSSTLVFGGGTKVTVLR
notes: also called antibody No. 2
B13: Antibody-F15-1L (antibody, human IgG1, kappa, V domains shown)
VH: QVQLRESGGGLVQPGGSLRLSCAASGFTFSSYAMNWVRQAPGKGLEWVSAISGSGGNTYYADSVKGRLTISRDNSKNTLYLQMNSLRAEDTAVYYCAKDPLGSSWFEYFQHWGQGTLVTVSS
VL: QSALTQPASVSGSPGQSITISCTGTSSDVGGYNYVSWYQKHPGKAPKLMIYEVSNRPSGVSNRFSGSKSANTASLTISGLQAEDEADYFCSSYSSSSTLVVFGGGTKLTVLR
notes: also called Antibody-F15-IL; antibody No. 3
B14: Antibody-A6-1k (antibody, human IgG1, kappa, V domains shown)
VH: QVQLQRSGGGLVQPGGSLRLSCAASGFTFSSYGMTWVRQAPGKGLEWVSAISNSGGSTYYADSVKGRFTISRDNSKNTLYLQMNSLRAEDTAVYYCAKDGPYFDYWGQGTLVTVSS
VL: DIQMTQSPSTLSASVGDRVTITCRVSQGIGDDLGWYQQKPGKAPKLLIYKASNLESGVPSRFSGSGSGTDFSLTISSLQPEDFATYFCQQAHSFPPTFGGGTKLEIKR
notes: also called Antibody-A6-lk; antibody No. 7
B15: Antibody-M5-5k (antibody, human IgG1, kappa, V domains shown)
VH: QVQLVESGGGLIQPGGSLRLSCTASGFTFSTYAMSWVRQAPGKGLEWVSAISGTGDWASYADSVKGRFTTSRDNSRNTLYLQMNNLRDEDTAIYYCAKSSSTVATDFDYGMDVWGQGTLVTVSS
VL: ETTLTQSPSTLSASVGDRVTITCRASEEIGSWLAWYQQTPGKAPKRLIYEASSLQSGVPSRFSGSGSGTDFTLTISSLQPEDFATYYCQQYGSYPPTFGQGTKVEIKR
notes: also called antibody No. 8
B16: Antibody-M5-7k (antibody, human IgG1, kappa, V domains shown)
VH: QVQLVESGGGLIQPGGSLRLSCTASGFTFSTYAMSWVRQAPGKGLEWVSAISGTGDWASYADSVKGRFTTSRDNSRNTLYLQMNNLRDEDTAIYYCAKSSSTVATDFDYGMDVWGQGTLVTVSS
VL: DIVMTQSPSTLSASVGDRVTVTCRASEDIGRWLAWYQQKPGKAPKRLIYAASSLQSGVPSRFSGSGSGTEFTLTISSLQPEDFATYYCQQYYNYPPTFGQGTKVEIKR
notes: also called antibody No. 9

Target: T1, human OX40 on cells
Test: cell-based or functional assay

Binder | NFκB reporter in Jurkat-hOX40-NFκB-2 cells with Raji cells, activation peak against 11D4
B1 | ~2.5 fold

Target: T1, human OX40 on cells
Test: flow cytometry (MFI) on Jurkat cells overexpressing OX40, antibody titration; the unit nM comes from the legend paragraph 95
Excerpt: (§1) Table 10 illustrates the CDRs of eight full antibodies containing these amino acid mutations, and the rest of the sequences are the same as those of antibody-F23-32K. […] The sequences of the anti-OX40 antibody (antibody M) are shown in Table 12; wherein, the expression cells used for the antibodies above (including antibody M) are CHO-S cells, and the method for preparing the antibody M-KF is as follows: the antibody M was identical to the antibody M-KF in terms of amino acid sequence and was expressed by the CHO cell line in which the fut8 gene was knocked out (the content of fucose in antibody M-KF was about 0%).

Binder | EC50
B1 | 1.2 nM

Target: T2, hOX40-his
Test: BIACORE, antibody on the probe, 20 nM OX40-his
Excerpt: as §1

Binder | Kd | fold higher affinity than 11D4 | fold higher affinity than OX40mAb24 | fold increase of affinity (against antibody-F23-32K) | koff | kon
B1 | 0.16 nM | ~9 fold | ~21 fold | ~70 fold | 9.77e-05 s⁻¹ | 610000 M⁻¹ s⁻¹
B2 | 5.01 nM |  |  |  | 0.00139 s⁻¹ | 278000 M⁻¹ s⁻¹
B3 | 4.54 nM |  |  |  | 0.00133 s⁻¹ | 292000 M⁻¹ s⁻¹
B4 | 0.266 nM |  |  |  | 0.000119 s⁻¹ | 448000 M⁻¹ s⁻¹
B5 | 0.565 nM |  |  |  | 0.000243 s⁻¹ | 431000 M⁻¹ s⁻¹
B6 | 0.653 nM |  |  |  | 0.000321 s⁻¹ | 491000 M⁻¹ s⁻¹
B7 | 0.77 nM |  |  |  | 0.000348 s⁻¹ | 452000 M⁻¹ s⁻¹
B8 | 1.93 nM |  |  |  | 0.000714 s⁻¹ | 371000 M⁻¹ s⁻¹

Target: T1, human OX40 on cells
Test: flow cytometry (MFI) on Jurkat cells overexpressing OX40, antibody titration
Excerpt: as §1

Binder | EC50 (read off the curve)
B1 | ~1 nM

Target: T3, hOX40-FC
Test: BLI (ForteBio), biotinylated antibody on SA sensor, OX40-Fc 50 nM bivalent, 1:1 model
Experimental: The ForteBio affinity assay was conducted according to the existing conventional method (Estep, P et al., MAbs, 2013, 5(2): 270-8). The brief process is as follows: the sensor was equilibrated offline in an assay buffer (such as PBS) for 20 min and then subjected to online test for 60 s to establish a signal baseline. The purified antibodies obtained as described above were each loaded online onto a corresponding sensor (ForteBio), and finally the ForteBio affinity assay was conducted. The biotinylated candidate antibodies were adsorbed with the SA sensor, and binding and dissociation of hOX40-FC were each detected for about 5 min. The results are shown in Table 4, and N.D indicates not detected in Table 4. Finally, kinetic analysis was performed for all by using a 1:1 binding model.

Binder | Kd
B9 | 2 nM
B10 | 3 nM
B11 | 9 nM
B12 | < 0.1 nM
B13 | 3 nM
B14 | 4 nM
B15 | 2 nM
B16 | 0.4 nM
